Source: patent US20120082676A1 (RESEARCH FOUNDATION OF STATE UNIVERSITY OF NEW YORK, published 2012)

T1: high molecular weight kininogen (HK) (UniProt P01042 19-644)
T1 sequence (looked up): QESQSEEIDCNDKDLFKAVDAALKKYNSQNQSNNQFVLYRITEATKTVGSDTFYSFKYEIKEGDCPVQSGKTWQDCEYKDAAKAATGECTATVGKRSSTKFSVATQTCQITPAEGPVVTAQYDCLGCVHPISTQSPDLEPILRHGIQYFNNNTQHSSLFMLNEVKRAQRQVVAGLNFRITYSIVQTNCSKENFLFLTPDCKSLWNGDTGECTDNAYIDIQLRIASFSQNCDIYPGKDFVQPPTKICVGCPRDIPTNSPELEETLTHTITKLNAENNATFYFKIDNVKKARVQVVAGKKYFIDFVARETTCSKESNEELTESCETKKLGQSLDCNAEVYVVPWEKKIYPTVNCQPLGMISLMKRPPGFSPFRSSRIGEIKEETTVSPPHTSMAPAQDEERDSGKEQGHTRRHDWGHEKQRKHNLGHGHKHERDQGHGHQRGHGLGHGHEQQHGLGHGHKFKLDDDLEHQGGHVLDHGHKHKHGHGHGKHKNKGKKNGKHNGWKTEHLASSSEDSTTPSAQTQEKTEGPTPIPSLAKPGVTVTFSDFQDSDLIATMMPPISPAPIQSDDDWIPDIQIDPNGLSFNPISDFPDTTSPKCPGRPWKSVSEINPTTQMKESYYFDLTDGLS

B1: gC1q-R deletion mutant lacking residues 204-218 (receptor, human, UniProt Q07021 74-282, looked up)
chain: LHTDGDKAFVDFLSDEIKEERKIQKHKTLPKMSGGWELELNGTEAKLVRKVAGEKITVTFNINNSIPPTFDGEEEPSQGQKVEEQEPELTSTPNFVVEVIKNDDGKKALVLDCHYPEDEVGQEDEAESDIWKDTNYTLNTDSLDWALYDHLMDFLADRGVDNTFADELVELSTALEHQEYITFLEDLKSFVKSQ
notes: also called mutant lacking these residues

What was measured:
[1] = target: T1, high molecular weight kininogen (HK); test: solid phase ELISA, peptide on the plate
Text: Several peptides were synthesized that correspond with the gC1q-R domains of very high negative charge and, which based on their location in the crystal structure on the solution-face, are hypothesized to interact with solution-phase ligands.

[2] = target: T1, high molecular weight kininogen (HK); test: HK binding to recombinant gC1q-R deletion mutants (FIG. 7)

| Binder | binding result [1] | binding result [2] |
| --- | --- | --- |
| EDEVGQEDEAESD (Synthetic peptide coated on ELISA wells) [gC1q-R peptide (amino acids 190-202)] | binds | – |
| B1 | – | no binding |
